Columns and labels:
Assay in all cases: fibrinogen 15mer peptide array
[1] = substrate: T1, FIBB 315-329
T1 sequence (peptide): EDWKGDKVKAHYGGF

[2] = substrate: T2, FIBB 283-297
T2 sequence (peptide): KNYCGLPGEYWLGND

[3] = substrate: T3, FIBB 191-205
T3 sequence (peptide): EYCRTPCTVSCNIPV

[4] = substrate: T4, FIBB 395-409
T4 sequence (peptide): SKEDGGGWWYNRCHA

[5] = substrate: T5, FIBB 407-421
T5 sequence (peptide): CHAANPNGRYYWGGQ

[6] = substrate: T6, FIBB 63-77
T6 sequence (peptide): GGCLHADPDLGVLCP

[7] = substrate: T7, FIBB 107-121
T7 sequence (peptide): VSQTSSSSFQYMYLL

[8] = substrate: T8, FIBB 71-85
T8 sequence (peptide): DLGVLCPTGCQLQEA

[9] = substrate: T9, FIBB 235-249
T9 sequence (peptide): PYRVYCDMNTENGGW

[10] = substrate: T10, FIBB 319-333
T10 sequence (peptide): GDKVKAHYGGFTVQN

[11] = substrate: T11, FIBB 258-262
T11 sequence (peptide): SVDFGRKWDPYKQGF

[12] = substrate: T12, FIBB 415-429
T12 sequence (peptide): RYYWGGQYTWDMAKH

[13] = substrate: T13, FIBB 427-431
T13 sequence (peptide): AKHGTDDGVVWMNWK

[14] = substrate: T14, FIBB 391-405
T14 sequence (peptide): RKQCSKEDGGGWWYN

[15] = substrate: T15, FIBB 139-153
T15 sequence (peptide): VNEYSSELEKHQLYI

[16] = molecular target: T16, FIBA 602-616
T16 sequence (peptide): RGHAKSRPVRGIHTS

[17] = molecular target: T17, FIBA 514 528
T17 sequence (peptide): FSPMLGEFVSETESR

[18] = molecular target: T18, FIBG 303-317
T18 sequence (peptide): FFTSHNGMQFSTWDN

[19] = molecular target: T19, FIBG 7-21
T19 sequence (peptide): NCCILDERFGSYCPT

[20] = molecular target: T20, FIBG 202-216
T20 sequence (peptide): DFKKNWIQYKEGFGH

[21] = molecular target: T21, FIBG 206-220
T21 sequence (peptide): NWIQYKEGFGHLSPT

[22] = molecular target: T22, FIBA 218-232
T22 sequence (peptide): FKSQLQKVPPEWKAL

[23] = molecular target: T23, FIBG 214-228
T23 sequence (peptide): FGHLSPTGTTEFWLG

[24] = molecular target: T24, FIBG 287-301
T24 sequence (peptide): GDAFDGFDFGDDPSD

[25] = molecular target: T25, FIBG 335-349
T25 sequence (peptide): WMNKCHAGHLNGVYY

[26] = molecular target: T26, FIBG 15-29
T26 sequence (peptide): FGSYCPTTCGIADFL

[27] = molecular target: T27, FIBG 123-137
T27 sequence (peptide): NLKEKVAQLEAQCQE

[28] = molecular target: T28, FIBA 507-521
T28 sequence (peptide): FPGFFSPMLGEFVSE

signal intensity (RLU) [1]: 5070 RLU
signal intensity (RLU) [2]: 8780 RLU
signal intensity (RLU) [3]: 2790 RLU
signal intensity (RLU) [4]: 3470 RLU
signal intensity (RLU) [5]: 9200 RLU
signal intensity (RLU) [6]: 2780 RLU
signal intensity (RLU) [7]: 2930 RLU
signal intensity (RLU) [8]: 2550 RLU
signal intensity (RLU) [9]: 3610 RLU
signal intensity (RLU) [10]: 2670 RLU
signal intensity (RLU) [11]: 6910 RLU
signal intensity (RLU) [12]: 12900 RLU
signal intensity (RLU) [13]: 2640 RLU
signal intensity (RLU) [14]: 2980 RLU
signal intensity (RLU) [15]: 6790 RLU
signal intensity (RLU) [16]: 2570 RLU
signal intensity (RLU) [17]: 5030 RLU
signal intensity (RLU) [18]: 6750 RLU
signal intensity (RLU) [19]: 5760 RLU
signal intensity (RLU) [20]: 9080 RLU
signal intensity (RLU) [21]: 6580 RLU
signal intensity (RLU) [22]: 6880 RLU
signal intensity (RLU) [23]: 8260 RLU
signal intensity (RLU) [24]: 11400 RLU
signal intensity (RLU) [25]: 50000 RLU
signal intensity (RLU) [26]: 3150 RLU
signal intensity (RLU) [27]: 3130 RLU
signal intensity (RLU) [28]: 3370 RLU
B1: antibody G or 45-C1C3 antibody (antibody, V domains shown)
VH: EVQLVESGGGAVQPGRSLRLSCAASGVSFSNIGMHWVRQAPGKGLEWVALISSDGRHTHYADSVKGRFTISRDNSENTLYLQINGLRADDTAVYYCAKGLDTRARYMGKFYTFDYWGQGTLVTVSS
VL: DIQLTQSPSSLSASVGDRVTITCRASQNIGVNLNWYQQRPGKGPKLLVSSTFSLQSGVPSRFSASGAGTNFTLTISSLQPEDYVTYYCQQSYSSPFTFGPGTKVDIK

Source: US20230331869A1
